We go through six molecules from paper PMC10192418, “High-affinity peptides developed against calprotectin and their application as synthetic ligands in diagnostic assays” (Nature Communications, 2023).

The target in assay [1] is T1, B-RCAL (BÜHLMANN recombinant calprotectin; His6-linker-S100A9-linker-S100A8) (human).
T1 chain: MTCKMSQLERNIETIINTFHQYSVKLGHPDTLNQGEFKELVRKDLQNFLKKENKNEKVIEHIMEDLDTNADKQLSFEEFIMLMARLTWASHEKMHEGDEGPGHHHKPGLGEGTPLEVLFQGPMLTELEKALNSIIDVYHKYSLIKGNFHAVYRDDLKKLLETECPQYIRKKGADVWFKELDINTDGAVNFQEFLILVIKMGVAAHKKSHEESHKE
The assay is described as follows: FP. To be noted: modification not given.

Assay [2] concerns the target T2, B-RCAL (BÜHLMANN recombinant calprotectin; His6-linker-S100A9-linker-S100A8).
T2 chain: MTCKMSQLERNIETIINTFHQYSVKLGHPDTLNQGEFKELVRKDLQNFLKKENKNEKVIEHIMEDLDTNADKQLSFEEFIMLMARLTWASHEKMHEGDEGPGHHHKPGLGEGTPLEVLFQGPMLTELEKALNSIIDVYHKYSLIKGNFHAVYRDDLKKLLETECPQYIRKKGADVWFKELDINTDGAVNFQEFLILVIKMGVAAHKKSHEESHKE
The assay is described as follows: fluorescence polarisation. To be noted: chain shown with the change, in the presence of calcium ions, three independent measurements. For orientation: Fluorescence polarisation rises when a labelled molecule tumbles more slowly, as on binding a larger partner.

B1: G18A (peptide)
chain: RSPESVAFPMFQSHWYSA
By Kd is commonly meant the free concentration of one partner at which half of the binding sites on the other are occupied at equilibrium, for simple one-to-one binding. Consider B1, for which the equilibrium dissociation constant (Kd) in assay [1] was found to be 31 nM.

B2: peptide 3 isomer 1 (dumbbell shaped, double-bridged) C2S; C5S (peptide)
chain: RSPESVAFPMFQCHWYCG
With B2, the equilibrium dissociation constant (Kd) in assay [2] (Cys3-Cys4 chemically bridged) came to 17.9 nM.

B3: W15A (peptide)
chain: RSPESVAFPMFQSHAYSG
For B3, in assay [1], the dissociation constant (Kd) was 24 nM.

B4: E4A (peptide)
chain: RSPASVAFPMFQSHWYSG
B4: the Kd in assay [1] came to 26 nM.

B5: P9A (peptide)
chain: RSPESVAFAMFQSHWYSG
Take B5: the Kd in assay [1] amounted to 30 nM.

B6: peptide 3 isomer 1 (dumbbell shaped, double-bridged) C13S; C17S (peptide)
chain: RCPECVAFPMFQSHWYSG
With B6, in assay [2] (Cys1-Cys2 chemically bridged), the Kd is 16.9 nM.
